Measured values published in doi:10.1101/2025.07.09.663820 (bioRxiv, 2025).

B1: Nb-aCHIP13 (VHH)
VHH: QLQLVESGGGLVQAGGSLRLSCATSGTTFRLNTMGWYRQAPGKQRELVATISRDFKTNYADSVKGRFTISRDNAKHTVDLQMNSLTPEDTAVYYCLVRDQREWYGPEYDNWGRGTQVTVSS

Assays:
[1] = target: CHIP13 extracellular domain (residues 33-253) (Lotus japonicus); test: SEC
[2] = target: CHIP13 extracellular domain (residues 33-253) (Lotus japonicus, UniProt D3KU00, N-glycans (one on N143))

Molecule | stoichiometry N [1] | Kd [2]
CHIP13 extracellular domain (residues 33-253) (domain or fragment) | 2 | –
B1 | – | 8.1 nM
